The values below come from patent US20170101476A1 (Novartis, published 2017).

T1: Human CXCR2 (human, UniProt P25025 1-360)
T1 sequence: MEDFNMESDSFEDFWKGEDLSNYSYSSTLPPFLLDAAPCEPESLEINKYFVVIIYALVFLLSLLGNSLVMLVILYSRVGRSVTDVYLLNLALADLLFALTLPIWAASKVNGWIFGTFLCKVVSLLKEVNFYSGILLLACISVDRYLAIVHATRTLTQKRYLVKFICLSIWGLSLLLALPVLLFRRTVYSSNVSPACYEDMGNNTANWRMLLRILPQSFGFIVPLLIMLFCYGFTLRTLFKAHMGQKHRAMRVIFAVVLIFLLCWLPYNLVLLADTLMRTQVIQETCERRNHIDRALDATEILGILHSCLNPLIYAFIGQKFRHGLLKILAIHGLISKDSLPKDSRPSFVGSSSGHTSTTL

T2: Cynomolgus CXCR2 (cynomolgus, UniProt Q28519 3-353 (rhesus entry))
T2 chain: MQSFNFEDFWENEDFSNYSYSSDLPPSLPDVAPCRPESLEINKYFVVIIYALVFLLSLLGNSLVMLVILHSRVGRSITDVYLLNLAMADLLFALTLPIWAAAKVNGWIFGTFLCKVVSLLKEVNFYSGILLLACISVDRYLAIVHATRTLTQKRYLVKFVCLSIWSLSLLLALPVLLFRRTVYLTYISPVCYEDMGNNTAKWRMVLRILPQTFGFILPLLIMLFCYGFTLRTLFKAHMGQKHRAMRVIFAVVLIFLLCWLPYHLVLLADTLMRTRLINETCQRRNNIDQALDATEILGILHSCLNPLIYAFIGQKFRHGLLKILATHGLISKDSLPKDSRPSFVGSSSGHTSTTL

B1: 137B07 (VHH, not shown: small tags and cut ends)
VHH: EVQLVESGGGLVQPGGSVRLSCVASGIIFRLSALGWTRQGPGKAREWVAGINSDGTTNYADPVKGRFTISRDNAKNTIYLHMDMLKPEDTAVYYCASGKYRGQGTQVTVSS
B2: CXCR20014 (bispecific antibody, not shown: small tags and cut ends)
chain: EVQLVESGGGLVQPGGSLRLSCVASGSIVRINTMGWYRQTPGKQRELVADITSGGNINYIDAVKGRFTISRDNTKNTVYLQMNSLKPEDTAVYYCNAEIVVLVGVWTQRARTGNYWGQGTQVTVSSGGGGSGGGGSGGGGSGGGGSGGGGSGGGGSGGGGSEVQLVESGGELVQPGGSLRLSCAASGSILTINAMGWYRQAPGKQRELVVRRTRGGSTTYQDSVKGRFTISADIAKKTMYLQMNSLKPEDTAVYYCMLDDRGGVYWGQGTQVTVSS
B3: CXCR20028 (other, not shown: small tags and cut ends)
chain: EVQLVESGGGLVQPGGSLRLSCVASGSIVRINTMGWYRQTPGKQRELVADITSGGNINYIDAVKGRFTISRDNTKNTVYLQMNSLKPEDTAVYYCNAEIVVLVGVWTQRARTGNYWGQGTQVTVSSGGGGSGGGGSGGGGSGGGGSGGGGSGGGGSGGGGSEVQLVESGGGLVQAGGSLTLSCAVSGSTFRINTMGWYRRAPGKQRELVAARDRGGYINYVDSVKGRFTVSRDNAKPTMYLQMNSLKPEDTAVYYCHAGTQDRTGRNFDRWGQGTQVTVSS
B4: CXCR20026 (bispecific antibody, not shown: small tags and cut ends)
chain: EVQLVESGGGLVQPGGSLRLSCVASGRIFSSNAMGWFRQAPGKEREFVAAITWRSGGSAYYADSAKGRFTISRDNAKNTVYLQMNSLKPEDTAVYYCAAGGSSWLSFPPDYWGQGTQVTVSSGGGGSGGGGSGGGGSGGGGSGGGGSGGGGSGGGGSEVQLVESGGGLVQAGESLRLSCAASGSTFDFKVMGWYRQPPGKQREGVAAIRLSGNMHYAESVKGRFTISKANAKNTVYLQMNSLRPEDTAVYYCKVNIRGQDYWGQGTQVTVSS
B5: CXCR20022 (VHH, not shown: small tags and cut ends)
chain: EVQLVESGGGLVQAGGSLRLSCAASGRTFSDYAMGWFRQAPGKEREFVAAITWNGGRVFYTASVKGRFTISRDNAKNTMYLQMNSLKPEDTAVYYCAADKDRRTDYLGHPVAYWGQGTQVTVSSGGGGSGGGGSGGGGSGGGGSGGGGSGGGGSGGGGSEVQLVESGGGLVQAGGSLRLSCAASGRTFSDYAMGWFRQAPGKEREFVAAITWNGGRVFYTASVKGRFTISRDNAKNTMYLQMNSLKPEDTAVYYCAADKDRRTDYLGHPVAYWGQGTQVTVSS
B6: CXCR20034 (bispecific antibody, not shown: small tags and cut ends)
chain: EVQLVESGGGLVQAGGSLRLSCAASGRTFSDYAMGWFRQAPGKEREFVAAITWNGGRVFYTASVKGRFTISRDNAKNTMYLQMNSLKPEDTAVYYCAADKDRRTDYLGHPVAYWGQGTQVTVSSGGGGSGGGGSGGGGSGGGGSGGGGSGGGGSGGGGSEVQLVESGGELVQPGGSLRLSCAASGSILTINAMGWYRQAPGKQRELVVRRTRGGSTTYQDSVKGRFTISADIAKKTMYLQMNSLKPEDTAVYYCMLDDRGGVYWGQGTQVTVSS
B7: CXCR20033 (bispecific antibody, not shown: small tags and cut ends)
chain: EVQLVESGGGLVQPGGSLRLSCVASGRIFSSNAMGWFRQAPGKEREFVAAITWRSGGSAYYADSAKGRFTISRDNAKNTVYLQMNSLKPEDTAVYYCAAGGSSWLSFPPDYWGQGTQVTVSSGGGGSGGGGSGGGGSGGGGSGGGGSGGGGSGGGGSEVQLVESGGELVQPGGSLRLSCAASGSILTINAMGWYRQAPGKQRELVVRRTRGGSTTYQDSVKGRFTISADIAKKTMYLQMNSLKPEDTAVYYCMLDDRGGVYWGQGTQVTVSS
B8: CXCR20023 (bispecific antibody, not shown: small tags and cut ends)
chain: EVQLVESGGGLVQAGGSLRLSCAASGRTFSDYAMGWFRQAPGKEREFVAAITWNGGRVFYTASVKGRFTISRDNAKNTMYLQMNSLKPEDTAVYYCAADKDRRTDYLGHPVAYWGQGTQVTVSSGGGGSGGGGSGGGGSGGGGSGGGGSGGGGSGGGGSEVQLVESGGGLVQPGGSLRLSCVASGRIFSSNAMGWFRQAPGKEREFVAAITWRSGGSAYYADSAKGRFTISRDNAKNTVYLQMNSLKPEDTAVYYCAAGGSSWLSFPPDYWGQGTQVTVSS
B9: CXCR20035 (other, not shown: small tags and cut ends)
chain: EVQLVESGGGLVQAGGSLTLSCAVSGSTFRINTMGWYRRAPGKQRELVAARDRGGYINYVDSVKGRFTVSRDNAKPTMYLQMNSLKPEDTAVYYCHAGTQDRTGRNFDRWGQGTQVTVSSGGGGSGGGGSGGGGSGGGGSGGGGSGGGGSGGGGSEVQLVESGGGLVQPGGSLRLSCVASGRIFSSNAMGWFRQAPGKEREFVAAITWRSGGSAYYADSAKGRFTISRDNAKNTVYLQMNSLKPEDTAVYYCAAGGSSWLSFPPDYWGQGTQVTVSS
B10: CXCR20030 (other, not shown: small tags and cut ends)
chain: EVQLVESGGGLVQAGGSLRLSCAASGRTFSDYAMGWFRQAPGKEREFVAAITWNGGRVFYTASVKGRFTISRDNAKNTMYLQMNSLKPEDTAVYYCAADKDRRTDYLGHPVAYWGQGTQVTVSSGGGGSGGGGSGGGGSGGGGSGGGGSGGGGSGGGGSEVQLVESGGGLVQAGGSLTLSCAVSGSTFRINTMGWYRRAPGKQRELVAARDRGGYINYVDSVKGRFTVSRDNAKPTMYLQMNSLKPEDTAVYYCHAGTQDRTGRNFDRWGQGTQVTVSS

The target of the first test is T1, Human CXCR2. In words: cell-based or functional assay.
With B1, the “FLIPR IC50, GRO-α induced intracellular calcium release” value is 6.71 nM.

In the next test the target is T2, Cynomolgus CXCR2. In words: cell-based or functional assay.
In the case of B2, the “FLIPR IC50, GRO-α induced intracellular calcium release” value worked out at 13.7 nM.

Take B3: the “FLIPR IC50, GRO-α induced intracellular calcium release” value came to 17 nM.

Consider B4, for which the “FLIPR IC50, GRO-α induced intracellular calcium release” value amounted to 9.1 nM.

As for B5, the “FLIPR IC50, GRO-α induced intracellular calcium release” value came out at 8.64 nM.

B6: the “FLIPR IC50, GRO-α induced intracellular calcium release” value is 9.47 nM.

On to B7, for which the “FLIPR IC50, GRO-α induced intracellular calcium release” value was found to be 4.46 nM.

Consider B8, for which the “FLIPR IC50, GRO-α induced intracellular calcium release” value was 12 nM.

As to B9, the “FLIPR IC50, GRO-α induced intracellular calcium release” value was determined as 8.72 nM.

As to B10, the “FLIPR IC50, GRO-α induced intracellular calcium release” value turned out to be 6.36 nM.

Another test deals with T1, Human CXCR2. As to the kind of experiment: cell-based or functional assay. This is another data set of the same source.
Turning to B2, the “FLIPR IC50, GRO-α induced intracellular calcium release” value is 6.84 nM.

For the molecule B3, the “FLIPR IC50, GRO-α induced intracellular calcium release” value came out at 21.9 nM.

Take B4: the “FLIPR IC50, GRO-α induced intracellular calcium release” value came out at 12.3 nM.

Consider B5, for which the “FLIPR IC50, GRO-α induced intracellular calcium release” value was determined as 9.34 nM.

Take B6: the “FLIPR IC50, GRO-α induced intracellular calcium release” value was 11.8 nM.

For the molecule B7, the “FLIPR IC50, GRO-α induced intracellular calcium release” value stood at 17.9 nM.

For the molecule B8, the “FLIPR IC50, GRO-α induced intracellular calcium release” value stood at 14.8 nM.

Turning to B9, the “FLIPR IC50, GRO-α induced intracellular calcium release” value turned out to be 10.2 nM.

As for B10, the “FLIPR IC50, GRO-α induced intracellular calcium release” value came out at 11.8 nM.

A further test deals with T2, Cynomolgus CXCR2. As to the kind of experiment: cell-based or functional assay. The source holds these as a separate data set.
Consider B2, for which the “Cynomologus WBSC IC50 (vs rhGROα)” value came out at 0.16 nM.

As to B3, the “Cynomologus WBSC IC50 (vs rhGROα)” value turned out to be 1.72 nM.

As for B4, the “Cynomologus WBSC IC50 (vs rhGROα)” value is 0.26 nM.

As to B6, the “Cynomologus WBSC IC50 (vs rhGROα)” value was found to be 0.44 nM.

As to B7, the “Cynomologus WBSC IC50 (vs rhGROα)” value is 0.42 nM.

B9: the “Cynomologus WBSC IC50 (vs rhGROα)” value turned out to be 0.43 nM.

Consider B10, for which the “Cynomologus WBSC IC50 (vs rhGROα)” value amounted to 0.56 nM.

The target of the next test is T1, Human CXCR2. In words: cell-based or functional assay. The source holds these as a separate data set.
B2: the “Human Chemotaxis IC50 (vs rhGROα)” value was found to be 0.16 nM and the “Human WBSC IC50 (vs rhGROα)” value was 0.445 nM.

B3: the “Human WBSC IC50 (vs rhGROα)” value was 0.43 nM.

Turning to B4, the “Human Chemotaxis IC50 (vs rhGROα)” value amounted to 0.14 nM and the “Human WBSC IC50 (vs rhGROα)” value stood at 0.165 nM.

On to B6, for which the “Human Chemotaxis IC50 (vs rhGROα)” value is 0.145 nM and the “Human WBSC IC50 (vs rhGROα)” value came to 0.29 nM.

With B7, the “Human Chemotaxis IC50 (vs rhGROα)” value was determined as 0.145 nM and the “Human WBSC IC50 (vs rhGROα)” value worked out at 0.345 nM.

As for B9, the “Human WBSC IC50 (vs rhGROα)” value is 0.24 nM.

B10: the “Human WBSC IC50 (vs rhGROα)” value is 0.215 nM.

In a further test the target is T1, Human CXCR2. As to the kind of experiment: cell-based or functional assay. The source holds these as a separate data set.
For the molecule B2, the “[35S]GTPγS % inhibition of max, ENA-78” value came out at 100%; the “[35S]GTPγS % inhibition of max, GRO-α” value was 100%; the “[35S]GTPγS % inhibition of max, IL-8” value stood at 100%; the “[35S]GTPγS accumulation IC50, ENA-78” value stood at 1.66 nM. Also, the “[35S]GTPγS accumulation IC50, GRO-α” value is 1.38 nM and the “[35S]GTPγS accumulation IC50, IL-8” value stood at 1.13 nM.

Consider B3, for which the “[35S]GTPγS % inhibition of max, GRO-α” value worked out at 100% and the “[35S]GTPγS accumulation IC50, GRO-α” value was 1.38 nM.

On to B4, for which the “[35S]GTPγS % inhibition of max, GRO-α” value is 100% and the “[35S]GTPγS accumulation IC50, GRO-α” value is 0.809 nM.

For B5, the “[35S]GTPγS % inhibition of max, GRO-α” value turned out to be 100% and the “[35S]GTPγS accumulation IC50, GRO-α” value was determined as 28.5 nM.

Regarding B6, the “[35S]GTPγS % inhibition of max, GRO-α” value amounted to 100% and the “[35S]GTPγS accumulation IC50, GRO-α” value was found to be 0.995 nM.

On to B7, for which the “[35S]GTPγS % inhibition of max, GRO-α” value is 100% and the “[35S]GTPγS accumulation IC50, GRO-α” value was determined as 1.01 nM.

As to B8, the “[35S]GTPγS % inhibition of max, GRO-α” value came to 100% and the “[35S]GTPγS accumulation IC50, GRO-α” value was found to be 26.6 nM.

B9: the “[35S]GTPγS % inhibition of max, ENA-78” value amounted to 100%; the “[35S]GTPγS % inhibition of max, GRO-α” value amounted to 100%; the “[35S]GTPγS % inhibition of max, IL-8” value is 100%; the “[35S]GTPγS accumulation IC50, ENA-78” value came to 1.17 nM. For the same molecule, the “[35S]GTPγS accumulation IC50, GRO-α” value stood at 0.844 nM and the “[35S]GTPγS accumulation IC50, IL-8” value came to 0.717 nM.

Take B10: the “[35S]GTPγS % inhibition of max, ENA-78” value was found to be 100%; the “[35S]GTPγS % inhibition of max, GRO-α” value came to 100%; the “[35S]GTPγS % inhibition of max, IL-8” value came out at 100%; the “[35S]GTPγS accumulation IC50, ENA-78” value was 1.3 nM. Besides, the “[35S]GTPγS accumulation IC50, GRO-α” value was determined as 1.02 nM and the “[35S]GTPγS accumulation IC50, IL-8” value is 1.09 nM.
